Assay results taken from paper PMC9947421.

Columns and labels:
Assay in all cases: AP-MS
[1] = target: DNA-dependent protein kinase, catalytic subunit (PRKDC/DNAPKcs) (UniProt P78527)
[2] = target: Rap1-interacting factor 1 (RIF1) (UniProt Q5UIP0)
VGLL4 = VGLL4 (UniProt Q14135); conditions: read off a plot
[3] = target: X-ray repair cross-complementing protein 6 (XRCC6) (UniProt P12956); conditions: HEK293 cells
[4] = target: Yes-associated protein (YAP) (UniProt P46937); conditions: read off a plot
[5] = target: poly(ADP-ribose) polymerase 1 (PARP1) (UniProt P09874)
[6] = target: transcriptional co-activator with PDZ-binding motif (TAZ) (UniProt Q9GZV5); conditions: read off a plot
UniProt Q9GZV5, sequence (Q9GZV5 whole entry): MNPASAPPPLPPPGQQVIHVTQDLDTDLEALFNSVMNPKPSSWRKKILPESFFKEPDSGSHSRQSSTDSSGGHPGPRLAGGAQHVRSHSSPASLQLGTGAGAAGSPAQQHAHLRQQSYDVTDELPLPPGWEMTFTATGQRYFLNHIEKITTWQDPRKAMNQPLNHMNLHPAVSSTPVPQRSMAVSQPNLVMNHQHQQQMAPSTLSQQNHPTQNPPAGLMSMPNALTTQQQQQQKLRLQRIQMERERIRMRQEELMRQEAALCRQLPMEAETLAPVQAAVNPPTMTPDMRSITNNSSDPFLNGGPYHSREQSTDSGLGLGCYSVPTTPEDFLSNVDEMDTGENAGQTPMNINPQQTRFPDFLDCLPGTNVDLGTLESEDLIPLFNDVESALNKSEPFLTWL

UniProt P09874, sequence (P09874 whole entry): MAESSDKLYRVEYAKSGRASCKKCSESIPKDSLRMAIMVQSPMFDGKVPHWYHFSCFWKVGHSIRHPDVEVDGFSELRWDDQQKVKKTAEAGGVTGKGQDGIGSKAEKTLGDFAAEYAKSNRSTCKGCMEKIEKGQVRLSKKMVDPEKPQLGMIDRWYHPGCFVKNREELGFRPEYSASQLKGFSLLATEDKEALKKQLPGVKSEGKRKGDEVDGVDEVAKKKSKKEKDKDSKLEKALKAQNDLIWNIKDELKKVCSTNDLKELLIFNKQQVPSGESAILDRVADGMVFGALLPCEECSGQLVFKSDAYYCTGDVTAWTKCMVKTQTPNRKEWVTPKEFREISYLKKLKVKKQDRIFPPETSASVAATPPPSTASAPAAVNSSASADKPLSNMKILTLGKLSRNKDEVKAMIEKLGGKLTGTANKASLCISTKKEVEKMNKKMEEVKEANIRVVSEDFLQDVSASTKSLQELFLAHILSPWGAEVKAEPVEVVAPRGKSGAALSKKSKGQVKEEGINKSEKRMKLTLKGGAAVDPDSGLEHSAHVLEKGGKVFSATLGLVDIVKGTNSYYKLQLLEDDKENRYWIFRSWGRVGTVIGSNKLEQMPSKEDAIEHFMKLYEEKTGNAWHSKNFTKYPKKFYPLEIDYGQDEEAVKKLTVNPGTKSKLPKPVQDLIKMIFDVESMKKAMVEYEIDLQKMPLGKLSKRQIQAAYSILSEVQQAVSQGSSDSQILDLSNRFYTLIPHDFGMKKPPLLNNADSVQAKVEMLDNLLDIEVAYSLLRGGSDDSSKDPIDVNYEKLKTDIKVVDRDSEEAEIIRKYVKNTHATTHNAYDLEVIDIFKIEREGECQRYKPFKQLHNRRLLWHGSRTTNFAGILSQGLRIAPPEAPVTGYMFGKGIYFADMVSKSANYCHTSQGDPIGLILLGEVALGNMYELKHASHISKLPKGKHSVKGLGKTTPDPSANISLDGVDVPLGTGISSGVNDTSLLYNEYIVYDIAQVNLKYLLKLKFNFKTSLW
UniProt Q5UIP0, sequence (Q5UIP0 whole entry): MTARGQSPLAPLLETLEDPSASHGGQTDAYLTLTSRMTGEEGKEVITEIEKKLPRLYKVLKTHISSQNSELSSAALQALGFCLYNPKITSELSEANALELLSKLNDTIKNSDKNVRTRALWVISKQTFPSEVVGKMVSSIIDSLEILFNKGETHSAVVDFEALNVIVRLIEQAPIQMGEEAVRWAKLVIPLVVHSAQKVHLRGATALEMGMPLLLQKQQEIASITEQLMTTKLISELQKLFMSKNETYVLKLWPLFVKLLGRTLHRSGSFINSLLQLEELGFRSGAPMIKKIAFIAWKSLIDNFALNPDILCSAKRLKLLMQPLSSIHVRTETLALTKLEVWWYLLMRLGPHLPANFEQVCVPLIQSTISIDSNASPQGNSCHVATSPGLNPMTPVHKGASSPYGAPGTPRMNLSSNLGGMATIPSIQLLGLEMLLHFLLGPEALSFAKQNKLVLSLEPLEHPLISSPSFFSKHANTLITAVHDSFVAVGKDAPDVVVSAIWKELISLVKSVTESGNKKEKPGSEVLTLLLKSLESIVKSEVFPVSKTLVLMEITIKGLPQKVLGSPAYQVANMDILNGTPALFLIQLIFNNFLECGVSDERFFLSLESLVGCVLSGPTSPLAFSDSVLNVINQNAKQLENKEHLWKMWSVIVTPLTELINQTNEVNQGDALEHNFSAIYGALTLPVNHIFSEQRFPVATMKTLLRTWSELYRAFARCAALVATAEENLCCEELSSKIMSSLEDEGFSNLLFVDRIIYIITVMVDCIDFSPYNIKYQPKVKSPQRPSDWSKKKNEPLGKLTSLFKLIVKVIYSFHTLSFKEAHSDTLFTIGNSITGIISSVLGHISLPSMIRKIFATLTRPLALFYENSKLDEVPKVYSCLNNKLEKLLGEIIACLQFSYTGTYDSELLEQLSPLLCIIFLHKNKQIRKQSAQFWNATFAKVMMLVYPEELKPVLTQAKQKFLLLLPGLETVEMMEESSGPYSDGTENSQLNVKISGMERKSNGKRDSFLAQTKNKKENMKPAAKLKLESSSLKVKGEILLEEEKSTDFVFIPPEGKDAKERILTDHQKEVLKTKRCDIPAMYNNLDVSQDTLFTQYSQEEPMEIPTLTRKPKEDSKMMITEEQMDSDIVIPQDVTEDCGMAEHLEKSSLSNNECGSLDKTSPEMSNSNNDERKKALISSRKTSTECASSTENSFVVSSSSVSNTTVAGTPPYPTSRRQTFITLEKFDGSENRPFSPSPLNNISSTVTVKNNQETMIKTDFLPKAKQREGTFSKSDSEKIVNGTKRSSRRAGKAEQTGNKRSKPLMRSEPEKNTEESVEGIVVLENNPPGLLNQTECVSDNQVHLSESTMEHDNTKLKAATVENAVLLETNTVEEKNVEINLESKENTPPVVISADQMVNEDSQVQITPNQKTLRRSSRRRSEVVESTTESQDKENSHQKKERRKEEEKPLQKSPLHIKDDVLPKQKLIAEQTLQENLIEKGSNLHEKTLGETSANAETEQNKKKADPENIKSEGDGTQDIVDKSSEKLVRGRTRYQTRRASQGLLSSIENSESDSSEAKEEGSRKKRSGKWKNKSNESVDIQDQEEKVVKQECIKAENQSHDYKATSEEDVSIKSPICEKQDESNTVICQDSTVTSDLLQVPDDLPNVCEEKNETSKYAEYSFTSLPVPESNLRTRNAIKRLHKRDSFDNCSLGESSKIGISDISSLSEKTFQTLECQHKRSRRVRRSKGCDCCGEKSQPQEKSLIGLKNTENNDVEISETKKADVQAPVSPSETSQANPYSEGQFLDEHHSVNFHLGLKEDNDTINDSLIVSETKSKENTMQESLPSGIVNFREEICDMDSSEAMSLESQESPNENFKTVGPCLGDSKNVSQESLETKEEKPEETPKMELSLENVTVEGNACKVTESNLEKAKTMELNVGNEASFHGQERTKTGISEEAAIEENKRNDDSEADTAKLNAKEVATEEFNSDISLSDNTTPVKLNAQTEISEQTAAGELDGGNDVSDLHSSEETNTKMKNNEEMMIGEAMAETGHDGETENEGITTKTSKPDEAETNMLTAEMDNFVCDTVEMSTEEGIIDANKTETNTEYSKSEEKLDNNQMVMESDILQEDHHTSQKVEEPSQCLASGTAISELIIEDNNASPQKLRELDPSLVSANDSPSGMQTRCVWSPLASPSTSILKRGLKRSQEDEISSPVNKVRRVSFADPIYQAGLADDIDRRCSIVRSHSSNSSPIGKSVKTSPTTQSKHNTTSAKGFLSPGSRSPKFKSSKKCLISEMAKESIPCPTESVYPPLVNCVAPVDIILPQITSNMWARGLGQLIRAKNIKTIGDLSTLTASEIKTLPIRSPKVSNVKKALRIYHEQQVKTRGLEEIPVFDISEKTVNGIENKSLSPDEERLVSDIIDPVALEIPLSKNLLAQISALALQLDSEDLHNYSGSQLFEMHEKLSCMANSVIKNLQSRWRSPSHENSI
UniProt Q14135, sequence (Q14135 whole entry): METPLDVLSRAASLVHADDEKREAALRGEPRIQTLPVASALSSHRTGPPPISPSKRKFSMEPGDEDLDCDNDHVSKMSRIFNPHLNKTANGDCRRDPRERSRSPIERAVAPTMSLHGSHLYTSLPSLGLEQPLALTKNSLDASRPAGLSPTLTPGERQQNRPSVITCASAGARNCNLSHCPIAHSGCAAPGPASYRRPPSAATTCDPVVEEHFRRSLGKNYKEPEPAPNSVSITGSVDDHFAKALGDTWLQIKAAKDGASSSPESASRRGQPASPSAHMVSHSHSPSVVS
UniProt P46937, sequence (P46937 whole entry): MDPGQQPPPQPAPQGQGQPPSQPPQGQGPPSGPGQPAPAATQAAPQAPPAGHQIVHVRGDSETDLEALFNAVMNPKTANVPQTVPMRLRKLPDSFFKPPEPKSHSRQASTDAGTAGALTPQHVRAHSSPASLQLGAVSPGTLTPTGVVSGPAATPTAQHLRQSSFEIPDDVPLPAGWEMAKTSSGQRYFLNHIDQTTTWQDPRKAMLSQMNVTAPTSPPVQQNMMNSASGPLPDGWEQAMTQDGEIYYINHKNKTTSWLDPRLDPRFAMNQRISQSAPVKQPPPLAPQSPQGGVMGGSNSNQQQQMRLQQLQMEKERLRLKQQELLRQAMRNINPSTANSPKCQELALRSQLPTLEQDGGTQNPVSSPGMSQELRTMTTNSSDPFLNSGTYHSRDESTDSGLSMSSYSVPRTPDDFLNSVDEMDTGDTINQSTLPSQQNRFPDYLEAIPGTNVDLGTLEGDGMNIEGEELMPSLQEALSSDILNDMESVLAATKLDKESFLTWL

WT TEAD3-Myc/Flag (from UniProt Q99594) … -> … (R>N; K>N; R>N; K>N; K>N; V>N; R>N; residue numbers not printed)
response ([1]; Detroit 562 cells, replicate TEAD3 mut_1 (parent: TEAD3_WT_1), parent: 232): 132 PSMs | response ([1]; Detroit 562 cells, replicate TEAD3 mut_2 (parent: TEAD3_WT_2), parent: 898): 496 PSMs | response ([1]; Detroit 562 cells, replicate TEAD3 mut_3 (parent: TEAD3_WT_3), parent: 658): 396 PSMs | response ([1]; HEK293 cells, replicate TEAD3 mut_1 (parent: TEAD3_WT_1), parent: 258): 167 PSMs | response ([1]; HEK293 cells, replicate TEAD3 mut_2 (parent: TEAD3_WT_2), parent: 223): 195 PSMs | response ([1]; HEK293 cells, replicate TEAD3 mut_3 (parent: TEAD3_WT_3), parent: 216): 230 PSMs | response ([2]; Detroit 562 cells, replicate TEAD3 mut_1 (parent: TEAD3_WT_1), parent: 302): 118 PSMs | response ([2]; Detroit 562 cells, replicate TEAD3 mut_2 (parent: TEAD3_WT_2), parent: 297): 45 PSMs | response ([2]; Detroit 562 cells, replicate TEAD3 mut_3 (parent: TEAD3_WT_3), parent: 331): 26 PSMs | response ([2]; HEK293 cells, replicate TEAD3 mut_1): 2 PSMs | response ([2]; HEK293 cells, replicate TEAD3 mut_2 (parent: TEAD3_WT_2), parent: 3): 1 PSMs | response (average sum PSMs) (VGLL4; Detroit 562 cells, parent: est. 90): 75 | response (average sum PSMs) (VGLL4; HEK293 cells, parent: est. 150): 190 | response ([3]; replicate TEAD3 mut_1 (parent: TEAD3_WT_1), parent: 56): 1 PSMs | response ([3]; replicate TEAD3 mut_3 (parent: TEAD3_WT_3), parent: 92): 1 PSMs | response (average sum PSMs) ([4]; Detroit 562 cells, parent: est. 620): 960 | response (average sum PSMs) ([4]; HEK293 cells, parent: est. 200): 230 | response ([5]; Detroit 562 cells, replicate TEAD3 mut_1 (parent: TEAD3_WT_1), parent: 90): 6 PSMs | response ([5]; Detroit 562 cells, replicate TEAD3 mut_2 (parent: TEAD3_WT_2), parent: 76): 5 PSMs | response ([5]; Detroit 562 cells, replicate TEAD3 mut_3 (parent: TEAD3_WT_3), parent: 87): 8 PSMs | response ([5]; HEK293 cells, replicate TEAD3 mut_1 (parent: TEAD3_WT_1), parent: 380): 1 PSMs | response ([5]; HEK293 cells, replicate TEAD3 mut_2 (parent: TEAD3_WT_2), parent: 624): 3 PSMs | response ([5]; HEK293 cells, replicate TEAD3 mut_3 (parent: TEAD3_WT_3), parent: 950): 4 PSMs | response (average sum PSMs) ([6]; Detroit 562 cells, parent: est. 170): 250 | response (average sum PSMs) ([6]; HEK293 cells, parent: est. 23): 22
